Patent EP4582447A1 (Quaerite Biopharm Research (Beijing) Co., Ltd., dated 2025)
Substitutions are numbered along the chain they refer to. Read-outs that look alike come from different tables or passages of the source. Blank lines part the entries; values can stand above or below the binder they belong to.

Legend:
Human VEGFA165 [1] = target: T1, Human VEGFA165 (human, UniProt P15692-4 27-191); test: ELISA, VEGFA coated 0.3 µg/mL, anti-His detection
T1 construct: treated as the same molecule; also called antigen VEGFA

Human VEGFA165 [2] = target: T1, Human VEGFA165; test: phage ELISA, VEGFA coated 0.5 µg/mL, anti-M13(HRP)
Target sequence in this assay (P15692 other isoform, or with tags, fused parts or gaps limits assumed): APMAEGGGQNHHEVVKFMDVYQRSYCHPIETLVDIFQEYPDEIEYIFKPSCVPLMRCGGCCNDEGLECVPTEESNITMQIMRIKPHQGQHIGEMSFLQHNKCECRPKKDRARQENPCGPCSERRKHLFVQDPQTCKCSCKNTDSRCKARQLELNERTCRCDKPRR

Human VEGFA165 [3] = target: T1, Human VEGFA165; test: SPR Biacore 8K, VEGFA165 amine-coupled on CM5, nanobody as analyte, 1:1 model
Target sequence in this assay (P15692 other isoform, or with tags, fused parts or gaps limits assumed): as above

Human VEGFA165 [4] = target: T1, Human VEGFA165; test: SPR, VEGFA165 on CM5
Human VEGFA165 [5] = target: T1, Human VEGFA165; test: cell-based or functional assay
Target sequence in this assay (P15692 other isoform, or with tags, fused parts or gaps limits assumed): as above

Human VEGFA165 [6] = target: T1, Human VEGFA165; test: competition ELISA on coated VEGFA, competitor VEGFR2-ECD-Fc 1 nM
Target sequence in this assay (P15692 other isoform, or with tags, fused parts or gaps limits assumed): as above

Human VEGFA165 [7] = target: T1, Human VEGFA165; test: competition ELISA on coated VEGFA, competitor VEGFR2-ECD-Fc 2 nM
Target sequence in this assay (P15692 other isoform, or with tags, fused parts or gaps limits assumed): as above

human VEGFA121 = target: T2, human VEGFA121 (human, UniProt P15692-9 27-147); test: ELISA, human VEGFA121 coated 0.3 µg/mL, anti-His detection
T2 sequence (looked up): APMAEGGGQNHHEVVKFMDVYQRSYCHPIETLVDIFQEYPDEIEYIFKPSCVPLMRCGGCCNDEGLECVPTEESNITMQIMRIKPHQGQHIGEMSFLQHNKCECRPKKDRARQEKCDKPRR

Human VEGFA165 [8] = target: T1, Human VEGFA165; test: SPR Biacore 8K, VEGFA165 amine-coupled on CM5, nanobody as analyte, 1:1 model; remark: listed apart in the source
Human VEGFA165 [9] = target: T1, Human VEGFA165; test: ELISA, VEGFA coated 0.3 µg/mL, anti-His detection; remark: listed apart in the source
Target sequence in this assay (P15692 other isoform, or with tags, fused parts or gaps limits assumed): as the sequence (P15692 other isoform, or with tags, fused parts or gaps limits assumed) above

[10] = target: 3% milk powder (negative control); test: phage ELISA, 3% milk powder coated (negative control), anti-M13(HRP)
Human VEGFA165 [11] = target: T1, Human VEGFA165; test: SPR Biacore 8K, V1-SA1 amine-coupled on CM5, VEGFA165 as analyte, two state reaction model (kd1)
Human VEGFA165 [12] = target: T1, Human VEGFA165; test: SPR Biacore 8K, V1-SA1 amine-coupled on CM5, VEGFA165 as analyte, two state reaction model
Human VEGFA165 [13] = target: T1, Human VEGFA165; test: SPR Biacore 8K, V1-SA1 amine-coupled on CM5, VEGFA165 as analyte, two state reaction model (ka1)

EC50 (Human VEGFA165 [1]): 0.25 nM
B1: linear tandem bivalent nanobody 2V15-9GS (VHH)
chain: QLQLVESGGGSVQPGGSLRLSCEVSGRTFASYTMGWFRQAPGKEREFVVAISKGGYKYDSVSLEARFTISKDNTKNTVYLQMNSLKPEDTAVYYCAGTRAYGSSRLRLAETYEYWGQGTQVTVSSGGGGSGGGSQLQLVESGGGSVQPGGSLRLSCEVSGRTFASYTMGWFRQAPGKEREFVVAISKGGYKYDSVSLEARFTISKDNTKNTVYLQMNSLKPEDTAVYYCAGTRAYGSSRLRLAETYEYWGQGTQVTVSS
notes: no further tag added here

OD450 (Human VEGFA165 [2]): 2.31 OD450
Kd (Human VEGFA165 [3]): 0.247 nM
koff (Human VEGFA165 [3]): 0.000101 s⁻¹
kon (Human VEGFA165 [3]): 409000 M⁻¹ s⁻¹
fold difference of KD from the positive control BI-VEGF ab (Human VEGFA165 [4]): < 3 fold
IC50 (pM), inhibition of VEGFA-stimulated HUVEC proliferation (CCK-8) (Human VEGFA165 [5]): 2690 pM
Maximum inhibition rate (%) of HUVEC proliferation (Human VEGFA165 [5]): 103%
IC50 (Human VEGFA165 [6]): 5.59 nM
Maximum inhibition rate (%) (Human VEGFA165 [6]): 90.5%
IC50 (Human VEGFA165 [7]): 26.4 nM
Maximum inhibition rate (%) (Human VEGFA165 [7]): 95%
EC50 (human VEGFA121): 1.27 nM
Kd (Human VEGFA165 [8]): 0.247 nM
koff (Human VEGFA165 [8]): 0.000101 s⁻¹
kon (Human VEGFA165 [8]): 409000 M⁻¹ s⁻¹
EC50 (Human VEGFA165 [9]): 0.53 nM
OD450 [10]: 0.0377 OD450
B2: V1 (VHH)
VHH: QLQLVESGGGSVQPGGSLRLSCEVSGRTFSSYTMGWFRQAPGKEREFVVAISKGGYKYDSVSLEARFTISKDNTKNTVYLQMNSLKPEDTAVYYCAATRAYGSSRLRLADTYEYWGQGTQVTVSS
notes: also called candidate antibody V1; antibody V1

koff (Human VEGFA165 [11]): 0.0598 s⁻¹
IC50 (Human VEGFA165 [7]): 22.5 nM
Maximum inhibition rate (%) (Human VEGFA165 [7]): 94.6%
Kd (Human VEGFA165 [12]): 4.38 nM
kon (Human VEGFA165 [13]): 1.06e+06 M⁻¹ s⁻¹
B3: V1-SA1 (VHH)
VHH: B2 VHH with Q1E, L2V, S11L, E23A, K71R, T74A, K86R, Q120L
notes: Humanized V1; also called humanized antibody V1-SA1; monovalent nanobody V1-SA1

OD450 (Human VEGFA165 [2]): 1.87 OD450
fold difference of KD from the positive control BI-VEGF ab (Human VEGFA165 [4]): < 3 fold
IC50 (pM), inhibition of VEGFA-stimulated HUVEC proliferation (CCK-8) (Human VEGFA165 [5]): 7120 pM
Maximum inhibition rate (%) of HUVEC proliferation (Human VEGFA165 [5]): 84.2%
IC50 (Human VEGFA165 [6]): 3.89 nM
Maximum inhibition rate (%) (Human VEGFA165 [6]): 94.6%
IC50 (Human VEGFA165 [7]): 29.3 nM
Maximum inhibition rate (%) (Human VEGFA165 [7]): 71.6%
Kd (Human VEGFA165 [8]): 0.277 nM
koff (Human VEGFA165 [8]): 9.61e-05 s⁻¹
kon (Human VEGFA165 [8]): 347000 M⁻¹ s⁻¹
EC50 (Human VEGFA165 [9]): 0.89 nM
OD450 [10]: 0.0126 OD450
B4: V15 (VHH)
VHH: B2 VHH with S30A, A97G, D110E
notes: Purified with C-terminal GGGGS-6×His; also called candidate antibody V15
